Target: T1, lymphotoxin-β (human, UniProt Q06643 4-244, N-linked oligosaccharide (about 3 kD lost on N-glycanase treatment))
T1 construct: Type II membrane protein; In the reimmunoprecipitation tests the protein had been eluted from SDS-PAGE gel slices; also called LT-β; LT-B
T1 sequence: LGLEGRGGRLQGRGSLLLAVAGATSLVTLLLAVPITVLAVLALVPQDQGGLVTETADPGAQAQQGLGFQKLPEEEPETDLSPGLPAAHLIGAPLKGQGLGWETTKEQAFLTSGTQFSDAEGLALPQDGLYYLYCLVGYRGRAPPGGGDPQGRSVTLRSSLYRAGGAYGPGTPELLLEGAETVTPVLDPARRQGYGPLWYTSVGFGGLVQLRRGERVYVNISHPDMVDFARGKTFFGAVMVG
Assay: co-immunoprecipitation, then reimmunoprecipitation of separated bands from 35S-Met labeled II-23.D7 cells
Description: Reimmunoprecipitation of SDS-PAGE-separated antigens was carried out by excising labeled bands from gels, rehydrating them for 10 minutes in TBS, 0.2% SDS, and then dicing the gel slices into small pieces. The proteins were eluted by incubation in 1 ml TBS, 0.2% SDS for 8 hours at room temperature, with rotation. After elution the gel pieces were removed by centrifugation, and NP-40 was added to the supernatant to a final concentration of 2%. The eluted proteins were then immunoprecipitated as above, and reanalyzed by SDS-PAGE.

B1: lymphotoxin-α (ligand, human, UniProt P01374 35-205, looked up)
chain: LPGVGLTPSAAQTARQHPKMHLAHSTLKPAAHLIGDPSKQNSLLWRANTDRAFLQDGFSLSNNSLLVPTSGIYFVYSQVVFSGKAYSPKATSSPLYLAHEVQLFSSQYPFHVPLLSSQKMVYPGLQEPWLHSMYHGAAFQLTQGDQLSTHTDGIPHLVLSPSTVFFGAFAL
modifications: N-linked oligosaccharide
notes: mature; also called LT-α; LT
- binding result: binds

Reference: patent publication US20030143210A1 (Biogen, published 2003)
